What was measured:
human TSLP (HEK) = target: T1, human TSLP (HEK) (human, UniProt Q969D9 29-159); experiment: solution equilibrium titration (SET), antigen titrated in solution, free Fab read on an E. coli hsTSLP-coated MSD plate, mean of 3 experiments ± SD
T1 construct: also called human TSLP (produced in HEK cells)
Description: (§1) The Fab was incubated at a constant concentration with serial dilutions of the respective antigens. The binding affinity was extracted from a competition curve which was generated by plotting the read-out of the concentration of unbound antibody against the applied antigen concentration.
(§2) A 384-well MSD array MTP was coated o/n at 4° C. with 30 μl/well of hsTSLP (produced in E. coli) diluted in PBS at 5 μg/ml, then washed three times with 70 μl/well of wash buffer and blocked with 50 μl/well of blocking buffer for 1 h at RT on a shaker. After washing, a volume of 30 μl/well of the equilibrated antigen-Fab mix was transferred from the polypropylene MTP to the coated MSD plate and incubated for 20 min at RT.

[1] = target: T2, recombinant cynomolgus monkey TSLP (cynomolgus monkey, UniProt Q969D9 29-159 (human entry), limits assumed); experiment: as above
T2 construct: also called cyno TSLP; Cyno TSLP
T2 chain: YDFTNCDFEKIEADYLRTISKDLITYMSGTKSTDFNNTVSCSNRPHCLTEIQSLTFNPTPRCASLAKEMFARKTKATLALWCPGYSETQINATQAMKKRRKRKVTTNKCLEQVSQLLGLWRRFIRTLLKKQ
Description: as §1, §2

recombinant mouse TSLP = target: T3, recombinant mouse TSLP (mouse, UniProt Q9JIE6 20-140); experiment: Biacore SPR, Fab1 captured on a human Fab binder CM5 chip, TSLP injected
T3 construct: Bought from R&D Systems (MW 15 kDa); also called mTSLP; murine TSLP
T3 sequence: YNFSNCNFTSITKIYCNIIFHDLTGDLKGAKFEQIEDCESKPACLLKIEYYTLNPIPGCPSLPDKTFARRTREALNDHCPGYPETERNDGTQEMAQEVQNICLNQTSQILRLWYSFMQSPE
Description: Human Fab binder was immobilized on all four flow cells of a CM5 chip using a Human Fab Capture kit following manufacturer's instructions. A contact time of 360 seconds at a flow rate of 10 uL/min was specified. The temperature of the sample compartment was 10° C. and analysis temperature was 25° C.; prior to immobilization, the CM5 chip was primed with HBS-EP+ and normalized with BIAnormalizing solution. 375 uL of 20 ug/mL human Fab binder was prepared by combining 15 uL 0.5 mg/mL stock with 360 uL pH5 immobilization buffer (both provided in Human Fab Capture kit).
The temperature of the sample compartment was 10° C. and analysis temperature was 25° C. […] Regeneration of the Fab binder surface was achieved after each cycle by injecting 10 mM glycine-HCl, pH 2.0 for 60 s at 10 uL/min, followed by an extra wash with HBS-EP+ buffer. The temperature of the sample compartment was 10° C. and analysis temperature was 25° C.

recombinant human TSLP [2] = target: T4, recombinant human TSLP (human, UniProt Q969D9 29-159); experiment: solution equilibrium titration (SET), MSD electrochemiluminescence
T4 construct: Residues 29-159 follow its statement that the mature protein starts at Tyr29; also called rhTSLP; hTSLP
Description: as §1, §2

[3] = target: T2, recombinant cynomolgus monkey TSLP; experiment: cell-based or functional assay
recombinant human TSLP [4] = target: T4, recombinant human TSLP; experiment: cell-based or functional assay
[5] = target: naturally-secreted human TSLP (human, UniProt Q969D9 29-159); experiment: cell-based or functional assay
[6] = target: T5, His6-PreSc-TSLP (recombinant human TSLP used in crystallography) (human); experiment: complex purified by size-exclusion chromatography and solved by X-ray crystallography
T5 construct: also called TSLP (chain T)
T5 sequence (chain, as listed by the source limits assumed): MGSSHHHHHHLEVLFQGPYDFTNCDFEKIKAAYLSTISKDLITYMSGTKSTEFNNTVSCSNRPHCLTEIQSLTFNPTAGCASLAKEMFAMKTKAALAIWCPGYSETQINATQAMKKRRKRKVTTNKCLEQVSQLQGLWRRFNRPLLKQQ
Description: The peak fraction was concentrated to 9.2 mg/ml by ultrafiltration and submitted to crystallization screening.

| Binder | Kd (human TSLP (HEK)) [pM] | Kd [1] [pM] | binding result (recombinant mouse TSLP) | Kd (recombinant human TSLP [2]) [pM] | IC50, TSLP-induced MDC secretion from cyno PBMC [3] [pM] | IC50, TSLP-induced TARC secretion from human PBMC [3] [pM] | IC50, luciferase reporter gene assay (Ba/F3 cells with hTSLPR, hIL7Rα and Stat5-luciferase) [3] [pM] | mean IC50 (n=3), TSLP-induced MDC secretion from cyno PBMC [3] [pM] | mean IC50 (n=3), TSLP-induced TARC secretion from human PBMC [3] [pM] | mean IC50 (n=3), luciferase reporter gene assay [3] [pM] | IC50, TSLP-induced TARC secretion from human PBMC (recombinant human TSLP [4]) [pM] | IC50, luciferase reporter gene assay (Ba/F3 cells with hTSLPR, hIL7Rα and Stat5-luciferase) (recombinant human TSLP [4]) [pM] | mean IC50 (n=3), TSLP-induced TARC secretion from human PBMC (recombinant human TSLP [4]) [pM] | mean IC50 (n=3), luciferase reporter gene assay (recombinant human TSLP [4]) [pM] | IC50, luciferase reporter gene assay (Ba/F3 cells with hTSLPR, hIL7Rα and Stat5-luciferase) [5] [pM] | binding result [6] |
| --- | --- | --- | --- | --- | --- | --- | --- | --- | --- | --- | --- | --- | --- | --- | --- | --- |
| anti-TSLP Fab1 (Fab, V domains shown, also called anti-human TSLP Fab1; Fab fragment of MOR014824 (Mab1)) VH: EVQLVESGGGLVKPGGSLRLSCAASGFTFSDYWMHWVRQAPGKGLEWVGHIKSKTDAGTTDYAAPVKGRFTISRDDSKNTLYLQMNSLKTEDTAVYYCAREIYYYAFDSWGQGTLVTVSS VL: SYELTQPLSVSVALGQTARITCSGDNIGSKYVHWYQQKPGQAPVLVIYGDNERPSGIPERFSGSNSGNTATLTISRAQAGDEADYYCQAADWVDFYVFGGGTKLTVLG | 5 | 1.4 | no binding (tested: 10 nM highest antigen concentration) | 6 | 55.5 | 11.3 | 10.8 | 25.1 | 11.1 | 9.5 | 20.3 | 15.4 | 19.7 | 15.3 | 17.1 |  |
| anti-TSLP Fab1 generated by papain digestion of anti-TSLP mAb1 (crystallography sample) (Fab, V domains shown, pyroglutamic acid residue at the amino-terminus, also called the Fab) VH: EVQLVESGGGLVKPGGSLRLSCAASGFTFSDYWMHWVRQAPGKGLEWVGHIKSKTDAGTTDYAAPVKGRFTISRDDSKNTLYLQMNSLKTEDTAVYYCAREIYYYAFDSWGQGTLVTVSS VL: SYELTQPLSVSVALGQTARITCSGDNIGSKYVHWYQQKPGQAPVLVIYGDNERPSGIPERFSGSNSGNTATLTISRAQAGDEADYYCQAADWVDFYVFGGGTKLTVLG |  |  |  |  |  |  |  |  |  |  |  |  |  |  |  | binds |
